The source of these data is PMC6296668.

“And” between values parts separate entries of the source, which are not always exact repeats. Identical values can stand only once.

In test [1] the target is CAP256 gp140-FL-IP-His (HIV-1 subtype C (CAP256 SU)). The test is described as follows: native gel or EMSA; NativePAGE Novex 3-12% Bis-Tris gels (BN-PAGE) of lectin-purified protein, Coomassie stain or anti-gp160 western blot; oligomer judged by molecular weight against NativeMark standard.
In test [2] the target is CAP256 SU gp140-FL-IP (HIV-1 subtype C (CAP256 SU)). Described as above.

As for “CAP256 gp140-FL-IP-His (domain or fragment)”, the stoichiometry N in test [1] is 3 and 2. “CAP256 SU gp140-FL-IP (domain or fragment)”: the stoichiometry N in test [2] is 3.
